Tests used:
[1] = test system: HLA-A2.1/K^b transgenic mice; assay: IFN-γ intracellular cytokine staining, CD8+ T cells; type: in vivo; settings: mice immunized with MTA1(1–283); splenocytes restimulated with peptide pool; T2 cells pulsed with each peptide; vs PBS, P < 0.001
Protocol: (§1) To test the effects of protein, each HLA-A2.1/K^b transgenic mouse was injected subcutaneously at the base of the tail with 100 μg MTA1(1–283) or the same volume of PBS emulsified in IFA twice on days 0 and 7. On day 14, spleen lymphocytes were harvested and stimulated by peptide pool (10 μg/ml) in vitro for another 6 days. LDH, IFN-γ ELISPOT, and IFN-γ intracellular cytokine staining assays were performed on day 6 after the in vitro stimulation. E/T ratios used in the LDH assay were 12.5 : 1, 25 : 1, and 50 : 1.
(§2) To test the protein MTA1(1–283) stimulation of CTL response in vivo, IFN-γ release of induced CTLs was determined by the intracellular cytokine staining assay according to our former study. In brief, on day 14, spleen lymphocytes were harvested and stimulated by peptide pool (10 μg/ml) in vitro for another 6 days. Then, restimulated splenocytes were incubated with peptide-loaded T2 cells or T2 cells only for 3 h. Subsequently, protein transport inhibitor cocktail was added to splenocytes for another 4 h. Then, those cells were stained with Anti-mouse CD3 PerCP-eFluor® 710 (clone: 17A2, eBioscience) and Anti-mouse CD8α PE (clone: 53–6.7, eBioscience) at 4°C for 30 min. […] Those cells were washed twice by permeabilization buffer and analyzed by flow cytometry.

[2] = test system: HLA-A2.1/K^b transgenic mice; assay: Serum IFN-γ ELISA after immunization; type: in vivo; settings: mice immunized with 100 μg/ml MTA1(1–283) in IFA days 0 and 7; serum day 14; vs PBS, P < 0.001; n = 5
[3] = test system: SW620 cells (HLA-A2+, MTA1+); assay: LDH cytotoxicity assay, CTLs induced in HLA-A2.1/Kb transgenic mice; type: in vivo, human; settings: mice immunized with MTA1(1–283) days 0 and 7; E/T 50 : 1 and 25 : 1; significant vs PBS
Protocol: In vivo induction of peptide-specific CTLs was performed as previously described. Briefly, peptide (100 μg) and the IA^b-restricted HBV-core128 T helper epitope (140 μg) emulsified in incomplete Freund's adjuvant (IFA) were used to subcutaneously immunize at the base of the tail of HLA-A2.1/K^b transgenic mice three times on days 0, 5, and 10. On day 11, all mice were sacrificed through cervical dislocation. Spleen lymphocytes were isolated and restimulated once with 10 μg/ml peptide and 10 U/ml mIL-2 in vitro for an additional 6 days. LDH and IFN-γ ELISPOT assays were performed on day 6 after in vitro stimulation. […]
as §1
(§3) Cytotoxic activity of induced T cells was tested based on the quantitation of LDH release using the nonradioactive cytotoxicity assay kit (Promega, USA) at the gradient E/T ratio [29, 31]. Target cells which expressed different levels of MTA1 or peptide-pulsed T2 cells were used as target cells. The anti-human HLA-A2 antibody (BB7.2) was added 30 min before adding effector cells to determine the HLA restriction. Target cells (5 × 10^3/well) were cocultured with the effector cells at 37°C for 4 h. The percentage of specific lysis of the target cells was determined using the equation: percentage of specific lysis = [(experimental release − effector spontaneous release − target spontaneous release)/(target maximum release − target spontaneous release)] × 100.

[4] = test system: SW620 (HLA-A2+, MTA1+); assay: LDH cytotoxicity assay, CTLs induced in vitro; type: cell-based, human; settings: PBMCs induced by 50 μg/ml MTA1(1–283); E/T 50 : 1; LDH assay; n = 4
Protocol: (§4) CTL induction in vitro was conducted according to the procedures previously described. Briefly, PBMCs from eight HLA-A^∗02^+ healthy donors were isolated using Ficoll-Paque density gradient centrifugation and resuspended in RPMI 1640 medium supplemented with 10% FBS. Then, PBMCs were stimulated three times (once a week) with the indicated peptides (10 μg/ml) or protein MTA1(1–283) (at final concentrations of 0, 1, 10, 30, and 50 μg/ml) for 21 days. Human recombinant cytokine interleukin-2 (IL-2) (50 U/ml) was added on day 3 and 1 day after each stimulation. The cytotoxic assay (lactate dehydrogenase (LDH) assay) and IFN-γ secretion enzyme-linked immunospot (ELISPOT) assay were performed on day 21.
as §3

[5] = test system: HLA-A2.1/K^b transgenic mice; assay: IFN-γ intracellular cytokine staining, CD4+ T cells; type: in vivo; settings: mice immunized with MTA1(1–283); CD3+CD8− subset
Protocol: as §1, §2

[6] = test system: PBMCs from HLA-A*02+ healthy donors; assay: IFN-γ ELISPOT of CTLs induced in vitro; type: cell-based, human; settings: PBMCs stimulated with MTA1(1–283) once a week for 21 days; stimulators T2 cells with peptide pool 50 μg/ml; n = 4
Protocol: as §4
The ELISPOT assay was performed using a commercial kit (Dakewe, China) according to the procedures previously described. Briefly, T2 cells incubated with/without candidate peptide (50 μg/ml) were used as the stimulating cells, effector cells (1 × 10^5) and stimulator cells (peptide-pulsed T2 cells or T2 cells only, 1 × 10^5) were seeded into the 96-well plate precoated with an anti-human (or anti-mouse) IFN-γ antibody. After incubation at 37°C for 18 h, cells were removed, and plates were processed for analysis as instructed. The spot number was determined automatically using a computer-assisted spot analyzer (Dakewe, China).

B1: MTA1(1–283): recombinant fragment of MTA1, first 283 amino acids, expressed in E. coli from pET28a, containing the predominant epitopes (protein, UniProt Q13330 1-283, looked up, fragment)
chain: MAANMYRVGDYVYFENSSSNPYLIRRIEELNKTANGNVEAKVVCFYRRRDISSTLIALADKHATLSVCYKAGPGADNGEEGEIEEEMENPEMVDLPEKLKHQLRHRELFLSRQLESLPATHIRGKCSVTLLNETESLKSYLEREDFFFYSLVYDPQQKTLLADKGEIRVGNRYQADITDLLKEGEEDGRDQSRLETQVWEAHNPLTDKQIDQFLVVARSVGTFARALDCSSSVRQPSLHMSAAAASRDITLFHAMDTLHKNIYDISKAISALVPQGGPVLCRD
percentage of IFN-γ+ CD8+ T cells [1]: a higher percentage of IFN-γ ^+ CD8^+ T cells compared with the PBS group | IFN-γ secretion in vivo (serum IFN-γ, ELISA) [2]: secreted more IFN-γ compared with the PBS control group | lysis of SW620 tumor cells by T cells induced in vivo by protein [3]: could kill SW620 tumor cells | rate of lysis of SW620 cells by protein-induced CTLs [4]: 50.01% | percentage of IFN-γ+ CD4+ T cells [5]: a certain percentage of IFN-γ ^+ CD4^+ T cells | IFN-γ secretion of protein-induced CTLs, ELISPOT [6]: can secrete IFN-γ
